Results: patent US6962971B2, “Chemokines and methods for inducing the differentiation of fibroblasts to myofibroblasts” (The Regents of the University of California, priority 2001, dated 2005)
Several values for one entry are separate records, joined by “and”; a condition that tells them apart may be missing. Identical values can stand only once. Entries after “also recorded” stand apart in the source; their conditions may differ.

Legend:
α-SMA mRNA = experiment: RT-PCR for α-SMA mRNA in fibroblasts; assay type: cell-based, chicken
Method: Total RNA for α-SMA was extracted using TRIzol reagent from untreated fibroblasts, fibroblasts treated with 750 ng/ml cCAF or fibroblasts treated for varying periods of time with cCAF. The RT-PCR procedure was performed using the Promega Access RT-PCR System, which is designed to finish reverse transcription (RT) and polymerase chain reaction (PCR) in one tube, and following the protocol recommended by Promega, except that 1.5 times the recommended amount of dNTP, reverse transcriptase and Tfl DNA polymerase were used to ensure strong synthesis of 18S ribosomal RNA. The reaction conditions included: 1 μg total RNA, first strand synthesis at 48° C. for 45 min, then 95° C. for 5 min to inactivate the reverse transcriptase, followed by DNA amplification at 95° C. for 45 sec, 58° C. for 60 sec, 68° C. for 90 sec for 40 cycles. Finally, 68° C. for 7 min to extent the strands. 2 μl of Quantum mRNA classic 18S primers (Ambion) were added to reaction to produce the control band. The followin primers used for the amplification of α-SMA: […]
RT-PCR products were analyzed by electrophoresis in 1.5% agarose and the density of the bands was measured by densitometry using Glyko BandScan.

CEFs = experiment: Trypan blue staining for necrotic cells; assay type: cell-based; conditions: cCAF-treated fibroblasts
Method: The supernatant of treated and untreated CEFs was collected, the cells centrifuged to a pellet and resuspended in a small volume of medium. 1% trypan blue was added to a final concentration of 0.5% trypan blue. Cells were stained for 5min and then counted in a hemocytometer. Necrotic cells stained blue.

[1] = system: fibroblast-seeded collagen gels; experiment: Collagen gel contraction by fibroblasts; assay type: cell-based, chicken
Method: 1.5 ml Vitrogen 100 collagen gels were made in 35 mm plates. Secondary fibroblasts were plated at 0.4×10^6 cells/35 mm plate on top of the gels. After the cells had adhered to the collagen, cCAF was added to experimental plates. The medium was replaced approximately every 16 hr with 1 ml of 199 supplemented with 0.3% tryptose phosphate broth and 2% donor calf serum, and 750 ng cCAF [68 nM] or N-peptide [480 nM] was added to the experimental plates. Control plates contained media only. After 4 days, gels were released. Treatment was continued for 2 more days and gels were photographed every 12 hours. The photographs were used for evaluation of gel contraction by determining the area of the gel using NIH image analysis.

[2] = system: Full-thickness excision wounds on the underside of the wings of 2-week-old chicks; experiment: Wounding experiment: closure of excision wounds; assay type: in vivo, chicken; conditions: 1 μg every other day
Method: Full-thickness excision wounds (approximately 0.5×0.5 cm) were made, using a scalpel blade, on the underside of the wings of 2-week-old chicks. The left wing was treated with vehicle alone (water), and the right wing with […] cCAF [90 nM]. The wounds were photographed immediately after wounding and then covered with Biocclusive bandage. 50 μl vehicle (water) or cCAF was deposited through the bandage onto the wound using a 30-gauge needle. This procedure was repeated the next day and every other day thereafter. On days 3, 5 and 7, the bandages were removed and the wounds were photographed before replacing the bandages and applying the treatment again.

[3] = system: primary chicken embryonic connective tissue fibroblasts; experiment: Acridine orange/ethidium bromide staining for apoptotic cells; assay type: cell-based; conditions: cCAF-treated fibroblasts
Method: Plates of fibroblasts treated with cCAF as described above were rinsed twice with PBS and incubated in 0.1 mg/ml acridine orange/ethidium bromide in PBS for 1 min. After rinsing twice with PBS and adding a cover slip, the cells were immediately viewed by epifluorescence microscopy and random fields were photographed. The number of cells with blebbing cytoplasm and fragmented nuclei were counted from the entire field of each photograph.

[4] = system: granulation tissue of excision wounds; experiment: Histology of excision wounds (Masson Trichrome); assay type: in vivo, chicken; conditions: 1 μg cCAF every other day; versus vehicle
Method: At the specified time points, chickens were euthanized with sodium pentobarbitol. The wounded wings were collected and fixed for 18 hrs in 4% paraformaldehyde and decalcified for 3 days in 5% formic acid, 2.5% formaldehyde at 4° C. The tissue was embedded in paraffin and sectioned. Sections were stained with Masson Trichrome to visualize interstitial collagen. Other sections were immunolabeled for α-SMA. Sections were deparaffinized with 3×15 min washes in Hemo-De and rehydrated in 5 min washes of ethanol (100%, 95%, 70%, 50%, 30%). After rinsing with PBS, sections were fixed in 2% paraformaldehyde 1 hr. General autofluoresence and non-specific staining were blocked by 30 min in 0.1M glycine in PBS, followed by 30 min in 1% Evans Blue in PBS to quench red blood cell autofluorescence. Sections were incubated with α-SMA antibody in 1% BSA in PBS (1:50) for 2 hr at room temperature. After 3×10 min washes in 0.1% BSA in PBS, the sections were incubated for 40 min with anti-mouse Alexa antibody in 1% BSA in PBS (1:200). They were then washed and mounted with Vectashield.

[5] = system: primary chicken embryonic connective tissue fibroblasts; experiment: Fibroblast growth assay; assay type: cell-based
Method: Primary chicken embryonic connective tissue fibroblasts (CEFs) were cultured as previously described in Martins-Green and Feugate (1998). Briefly, these fibroblasts were isolated from 10-day-old chicken embryo body walls, plated at 6×10^6 cells/100 mm plate and cultured for 4 days in 199 medium with 5% donor calf serum, 1% chick serum and 0.3% tryptose phosphate broth. These cultures were passaged once (secondary cultures); the cells were plated at 0.4×10^6 cells/35 mm plate in 199/tryptose phosphate broth and 2% donor calf serum.
Secondary fibroblasts were plated at 0.4×10^6 cells/35 mm plate and cCAF was added to experimental plates. For each experiment, plating efficiency was determined by trypsinizing plates four hours after plating. Cells were counted with a Coulter particle counter to confirm even plating of cells. The media was replaced approximately every 16 hr with 1 ml of […] 199 medium containing 0.3% tryptose phosphate broth and 2% donor calf serum, and 100-1000 ng cCAF [9-90 nM] or C- or N-peptide [64-640 nM] was added to the experimental plates, whereas, control plates contained media only. On day 3, plates were trypsinized to remove all cells and cells were counted using a Coulter counter. To test for specificity, anti-cCAF rabbit serum was pre-incubated with cCAF (3 μl serum/750 ng cCAF [68 nM] or N-peptide [480 nM]) for 1 hr at room temperature before being added to cells.

[6] = system: chicken chorioallantoic membrane (CAM); conditions: cited from earlier work

B1: cCAF: CXC chemokine chicken Chemotactic and Angiogenic Factor, full-length, SEQ ID NO:2; purified or synthesized (protein)
chain: LSQGRTLVKMGNELRCQCISTHSKFIHPKSIQDVKLTPSGPHCKNVEIIATLKDGREVCLDPTAPWVQLIVKALMAKAQLNSDAPL
modifications: Gallusgallus
notes: purified or synthesized
- time by which α-SMA mRNA drops below control levels (α-SMA mRNA; 750 ng/ml cCAF): ≤ 24 h
- time to increase in α-SMA mRNA levels (α-SMA mRNA; 750 ng/ml cCAF): ≤ 1 h
- time α-SMA mRNA levels remain elevated after treatment (α-SMA mRNA; 750 ng/ml cCAF): up to 12 hr
- period with increasing amounts of α-SMA mRNA relative to control (α-SMA mRNA; after initiation of treatment, normalized to 18S rRNA): 1 to 12 h
- necrotic cell death (CEFs): does not stimulate cell necrosis; also recorded: does not cause cells to undergo necrosis
- contraction of collagen gels after release ([1]; 750 ng/ml, 4-5 days treatment before release, versus untreated cells): much greater contraction; also recorded: stimulated fibroblasts to contract collagen gels more efficiently than untreated cells; also recorded: contracted the gels more tightly than did untreated cells
- contraction of fibroblast clusters on collagen ([1]; versus control cells): form clusters that are much tighter and generally pull away from the collagen; also recorded: more contracted than clusters in control cells
- wound closure at day 3 (days 0-3) ([2]; topical, versus vehicle (H2O) on contralateral wing): closed to a significantly greater degree than the vehicle-treated wounds
- wound closure at day 5 ([2]; versus vehicle): closure of the control wounds was still less than that of the experimental wounds
- wound closure at day 7 ([2]; versus vehicle): completely closed
- apoptotic morphology (cytoplasmic blebbing, nuclear fragmentation) [3]: do not show the characteristics of apoptotic cells; also recorded: compact cytoplasm and an intact nucleus characteristic of healthy cells
- density of granulation tissue, days 3 and 5 [4]: denser repair tissue than the control wounds; also recorded: appears more dense earlier in wound healing
- granulation tissue at day 7 [4]: minimal; also recorded: appear to be already remodeling
- time required for the decrease in cell numbers to be detected [5]: 2 to 3 days
- effect on fibroblast growth / cell numbers ([5]; 3 days treatment, 2% donor calf serum): suppresses fibroblast proliferation in a dose-dependent pattern
- dose of greatest (maximum) suppression of fibroblast proliferation ([5]; 3 days treatment, increasing doses of cCAF): 750 ng/mL and 500 to 750 ng/mL
- time of greatest suppression of proliferation ([5]; after plating, not shown): 2 days
- suppression of fibroblast proliferation compared to untreated cells ([5]; fibroblasts cultured in the presence of serum (2% donor calf serum), p<0.01): 25%
- fibroblast growth relative to untreated cells ([5]; of untreated cells): about 75%
- angiogenesis in the CAM ([6]; high concentrations, in the absence of leukocyte chemotaxis): stimulates blood vessel sprouting from the preexisting vessels of the CAM
- leukocyte chemotaxis in the CAM ([6]; low doses): chemotactic for monocyte/macrophages and lymphocytes
